Reference: patent US20200317768A1 (published 2020)
Numbering of substitutions follows the chain as printed. Each block holds one binder with its values, some of them ahead of it.

Legend:
Experiment in all cases: SPR (Biacore); KD of SG1 divided by KD of the variant for this FcgR;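 also: relative to parent M103205H795-SG1 carrying the SG1 human heavy chain constant region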
[1] = biological target: T1, cynomolgus monkey FcγRIIa2 extracellular domain with C-terminal His-tag (cynomolgus monkey)
T1 construct: Expressed in FreeStyle 293 cells and purified; also called cyno FcγRIIa2; cynoFcgRIIa2; not shown: C-terminal His-tag
T1 chain: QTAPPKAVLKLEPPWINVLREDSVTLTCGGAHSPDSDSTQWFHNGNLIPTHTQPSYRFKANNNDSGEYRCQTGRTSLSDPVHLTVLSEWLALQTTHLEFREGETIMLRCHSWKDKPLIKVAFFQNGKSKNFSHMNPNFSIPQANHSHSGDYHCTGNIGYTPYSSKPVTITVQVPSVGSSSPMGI

[2] = biological target: T2, cynomolgus monkey FcγRIIa1 extracellular domain with C-terminal His-tag (cynomolgus monkey)
T2 construct: Expressed in FreeStyle 293 cells and purified; also called cyno FcγRIIa1; cynoFcgRIIa1; not shown: C-terminal His-tag
T2 chain: T1 chain with T95P, A121T, K127I, S128A, N130K, N135D, Q142R

[3] = biological target: T3, human FcγRIIaR extracellular domain with C-terminal His-tag (human, UniProt P12318 34-217)
T3 construct: Expressed in FreeStyle 293 cells and purified; also called human FcγRIIa (type R); FcgRIIaR; not shown: C-terminal His-tag
T3 chain: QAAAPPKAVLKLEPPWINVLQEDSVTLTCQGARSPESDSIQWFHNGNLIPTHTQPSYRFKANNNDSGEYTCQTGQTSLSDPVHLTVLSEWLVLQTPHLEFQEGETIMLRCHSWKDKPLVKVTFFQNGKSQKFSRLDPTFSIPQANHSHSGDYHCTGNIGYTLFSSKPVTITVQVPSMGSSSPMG

[4] = biological target: T4, human FcγRIIIaV extracellular domain with C-terminal His-tag (human, UniProt P08637 17-208)
T4 construct: Expressed in FreeStyle 293 cells and purified; also called FcgRIIIaV; not shown: C-terminal His-tag

[5] = biological target: T5, human FcγRIIb extracellular domain with C-terminal His-tag (human, UniProt P31994 43-217)
T5 construct: Expressed in FreeStyle 293 cells and purified; also called humanFcgRIIb; not shown: C-terminal His-tag
T5 sequence: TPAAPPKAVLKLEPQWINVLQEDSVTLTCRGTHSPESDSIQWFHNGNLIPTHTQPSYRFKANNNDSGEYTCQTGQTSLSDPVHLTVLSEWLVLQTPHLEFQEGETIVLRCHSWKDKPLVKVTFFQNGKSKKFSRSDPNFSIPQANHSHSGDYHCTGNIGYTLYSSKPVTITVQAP

[6] = biological target: T6, human FcγRIIaH extracellular domain with C-terminal His-tag (human, UniProt P12318 34-217)
T6 construct: Expressed in FreeStyle 293 cells and purified; also called human FcγRIIa (type H); FcgRIIaH; not shown: C-terminal His-tag
T6 sequence: T3 chain with R134H

[7] = biological target: T7, cynomolgus monkey FcγRIIa3 extracellular domain with C-terminal His-tag (cynomolgus monkey)
T7 construct: Expressed in FreeStyle 293 cells and purified; also called cyno FcγRIIa3; cynoFcgRIIa3; not shown: C-terminal His-tag
T7 chain: T1 chain with K127I, N130K, H133P, Q142R

[8] = biological target: T8, cynomolgus monkey FcγRIIIaS extracellular domain with C-terminal His-tag (cynomolgus monkey, UniProt Q8SPW2 21-206 at identity 1.00))
T8 construct: Expressed in FreeStyle 293 cells and purified; also called cyno FcγRIIIaS; cynoFcγRIIIaS; not shown: C-terminal His-tag
T8 chain: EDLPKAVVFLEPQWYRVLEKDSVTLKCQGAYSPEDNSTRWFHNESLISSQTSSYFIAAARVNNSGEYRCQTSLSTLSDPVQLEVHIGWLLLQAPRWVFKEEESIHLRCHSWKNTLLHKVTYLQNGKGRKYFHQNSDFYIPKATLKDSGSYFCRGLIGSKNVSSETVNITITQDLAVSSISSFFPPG

[9] = biological target: T9, cynomolgus monkey FcγRIIb extracellular domain with C-terminal His-tag (cynomolgus monkey)
T9 construct: Expressed in FreeStyle 293 cells and purified; also called cyno FcγRIIb; cynoFcγRIIb; not shown: C-terminal His-tag
T9 chain: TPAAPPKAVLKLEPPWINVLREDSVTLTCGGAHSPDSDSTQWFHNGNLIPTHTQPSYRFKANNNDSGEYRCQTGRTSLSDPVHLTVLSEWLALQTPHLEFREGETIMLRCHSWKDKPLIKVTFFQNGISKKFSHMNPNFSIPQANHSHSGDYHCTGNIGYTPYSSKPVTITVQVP

T4 sequence (P08637 17-208 F176V): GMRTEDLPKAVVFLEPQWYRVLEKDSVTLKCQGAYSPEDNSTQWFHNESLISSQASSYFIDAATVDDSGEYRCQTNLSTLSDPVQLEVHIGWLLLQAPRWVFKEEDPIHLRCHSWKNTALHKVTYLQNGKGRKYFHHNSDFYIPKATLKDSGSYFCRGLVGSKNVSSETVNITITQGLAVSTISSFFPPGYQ

B1: M103205H795-MY208 / M103202L889-SK1 (antibody, human IgG1, kappa)
heavy: QVTLKESGPVLVKPTETLTLTCTVSGIDLSHDDISWVRQAPGKGLEWVGIISYAGSTYYASWAKGRLTISKDTSKNQVVLTMTNMDPVDTATYYCARGVPAYSHGGDLWGQGTLVTVSSASTKGPSVFPLAPSSKSTSGGTAALGCLVKDYFPEPVTVSWNSGALTSGVHTFPAVLQSSGLYSLSSVVTVPSSSLGTQTYICNVNHKPSNTKVDKKVEPKSCDKTHTCPPCPAPELLNGPSVFLFPPKPKDTLMISRTPEVTCVVVDVSDEDPEVKFNWYVDGVEVHNAKTKPREELYNSTYRVVSVLTVLHQDWLNGKEYKCKVSNKALPAPIEKTISKAKGQPREPQVYTLPPSREEMTKNQVSLTCLVKGFYPSDIAVEWESNGQPENNYKTTPPVLDSDGSFFLYSKLTVDKSRWQQGNVFSCSVMHEALHNHYTQKSLSLSP
light: DIVMTQSPATLSLSPGERATLSCTSSQSVYHANWLSWFQQKPGQPPKLLIYWASTLAYGVPSRFSGSGSGTDFTLTISSLQPEDAATYYCAGGYGGGRYAFGQGTKVEIKRTVAAPSVFIFPPSDEQLKSGTASVVCLLNNFYPREAKVQWKVDNALQSGNSQESVTEQDSKDSTYSLSSTLTLSKADYEKHKVYACEVTHQGLSSPVTKSFNRGEC
notes: Fc variant of M103205H795-SG1, expressed with M103202L889-SK1 as light chain
KD fold (SG1 = 1) [1]: 5.4 fold | KD fold (SG1 = 1) [2]: 2.7 fold | KD fold (SG1 = 1) [3]: 0.5 fold | KD fold (SG1 = 1) [4]: 0.08 fold | KD fold (SG1 = 1) [5]: 4.2 fold | KD fold (SG1 = 1) [6]: 0.8 fold | KD fold (SG1 = 1) [7]: 2.5 fold | KD fold (SG1 = 1) [8]: 0.18 fold | KD fold (SG1 = 1) [9]: 2.8 fold

B3: M103205H795-MY210 / M103202L889-SK1 (antibody, human IgG1, kappa)
heavy: B1 heavy with L297Q, K328T, A332K
light: B1 light
notes: as for B1
KD fold (SG1 = 1) [1]: 8.1 fold | KD fold (SG1 = 1) [2]: 3.4 fold | KD fold (SG1 = 1) [3]: 0.8 fold | KD fold (SG1 = 1) [4]: 0.05 fold | KD fold (SG1 = 1) [5]: 4.7 fold | KD fold (SG1 = 1) [6]: 0.6 fold | KD fold (SG1 = 1) [7]: 7.4 fold | KD fold (SG1 = 1) [8]: 0.15 fold | KD fold (SG1 = 1) [9]: 6.4 fold

B4: M103205H795-MY211 / M103202L889-SK1 (antibody, human IgG1, kappa)
heavy: B1 heavy with S241V, L297Q, K328T, A332K
light: B1 light
notes: as for B1
KD fold (SG1 = 1) [1]: 3.8 fold | KD fold (SG1 = 1) [2]: 4.3 fold | KD fold (SG1 = 1) [3]: 0.8 fold | KD fold (SG1 = 1) [4]: 0.17 fold | KD fold (SG1 = 1) [5]: 5.6 fold | KD fold (SG1 = 1) [6]: 0.6 fold | KD fold (SG1 = 1) [7]: 6.3 fold | KD fold (SG1 = 1) [8]: 0.12 fold | KD fold (SG1 = 1) [9]: 3.8 fold

Further lines, results first:

KD fold (SG1 = 1) [1]: 2.3 fold | KD fold (SG1 = 1) [2]: 1.5 fold | KD fold (SG1 = 1) [3]: 1.2 fold | KD fold (SG1 = 1) [4]: 0.07 fold | KD fold (SG1 = 1) [5]: 6.9 fold | KD fold (SG1 = 1) [6]: 0.7 fold | KD fold (SG1 = 1) [7]: 3.6 fold | KD fold (SG1 = 1) [8]: 0.05 fold | KD fold (SG1 = 1) [9]: 3 fold
B2: M103205H795-MY330 / M103202L889-SK1 (antibody, human IgG1, kappa)
heavy: B1 heavy with L237W, D270E, L297Q, A332K, P398M
light: B1 light
notes: as for B1

KD fold (SG1 = 1) [1]: 2.6 fold | KD fold (SG1 = 1) [2]: 2.1 fold | KD fold (SG1 = 1) [3]: 0.1 fold | KD fold (SG1 = 1) [4]: 0.01 fold | KD fold (SG1 = 1) [5]: 0.9 fold | KD fold (SG1 = 1) [6]: 0.5 fold | KD fold (SG1 = 1) [7]: 3.6 fold | KD fold (SG1 = 1) [8]: 0.08 fold | KD fold (SG1 = 1) [9]: 3.5 fold
B5: M103205H795-MY288 / M103202L889-SK1 (antibody, human IgG1, kappa)
heavy: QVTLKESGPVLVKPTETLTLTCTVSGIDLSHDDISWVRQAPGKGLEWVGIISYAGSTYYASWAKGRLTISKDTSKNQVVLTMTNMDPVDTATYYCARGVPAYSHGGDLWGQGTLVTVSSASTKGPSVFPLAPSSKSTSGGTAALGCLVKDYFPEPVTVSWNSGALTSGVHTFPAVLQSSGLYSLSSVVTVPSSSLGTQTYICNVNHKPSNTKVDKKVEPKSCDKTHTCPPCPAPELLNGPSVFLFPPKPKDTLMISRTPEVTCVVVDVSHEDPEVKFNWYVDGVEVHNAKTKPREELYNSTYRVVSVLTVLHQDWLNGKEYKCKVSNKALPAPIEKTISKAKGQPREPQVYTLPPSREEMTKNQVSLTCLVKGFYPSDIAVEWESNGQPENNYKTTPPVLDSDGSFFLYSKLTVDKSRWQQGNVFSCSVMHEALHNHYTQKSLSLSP
light: B1 light
notes: as for B1

KD fold (SG1 = 1) [1]: 3.4 fold | KD fold (SG1 = 1) [2]: 2.5 fold | KD fold (SG1 = 1) [3]: 0.8 fold | KD fold (SG1 = 1) [4]: 0.11 fold | KD fold (SG1 = 1) [5]: 1.6 fold | KD fold (SG1 = 1) [6]: 0.3 fold | KD fold (SG1 = 1) [7]: 2 fold | KD fold (SG1 = 1) [8]: 0.07 fold | KD fold (SG1 = 1) [9]: 2.4 fold
B6: M103205H795-MY289 / M103202L889-SK1 (antibody, human IgG1, kappa)
heavy: B1 heavy with D270H, L297Q, A332K, P398M
light: B1 light
notes: as for B1

KD fold (SG1 = 1) [1]: 9.6 fold | KD fold (SG1 = 1) [2]: 5.7 fold | KD fold (SG1 = 1) [3]: 0.8 fold | KD fold (SG1 = 1) [4]: 0.12 fold | KD fold (SG1 = 1) [5]: 7.3 fold | KD fold (SG1 = 1) [6]: 0.9 fold | KD fold (SG1 = 1) [7]: 5.9 fold | KD fold (SG1 = 1) [8]: 0.14 fold | KD fold (SG1 = 1) [9]: 4.9 fold
B7: M103205H795-MY212 / M103202L889-SK1 (antibody, human IgG1, kappa)
heavy: B1 heavy with S241V, K328T, A332K
light: B1 light
notes: as for B1
